# The supplement of paper PMC10567573
# ± gives the standard deviation.
# Assay: protein stability index of a GFP-peptide fusion (GPS, HEK-293T) (PSI 1-6); higher = more stable
# Conditions: c terminus: a fixed tail appended
# 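Further: 24-mer peptide tiles fused after GFP, lentivirally expressed, FACS-sorted into six equal bins by GFP/DsRed ratio, decoded by Illumina sequencing, PSI is the read-weighted mean bin number.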
Sequence,protein stability index (treatment: DMSO),"protein stability index (treatment: MLN4924 1 uM, 8 h)"
LLATFPRRALAPPSAGFRCCAAPG [ANKRD9],2.47 ± 0.16,2.45 ± 0.14
LLHLAVNSNTPVDDFHTNDVCSFP [FEM1B],2.85 ± 0.25,2.74 ± 0.12
LLKAGAEVNVLNDMRDTPLHRAAF [OSBPL1A],3.12 ± 0.24,3 ± 0.17
LLPNQSHGNQSAGEDQAFGDWLLT [SLC22A15],4.14 ± 0.35,4.24 ± 0.18
LLRDHIPRGKEELESLGGGKTPPG [MOG],4.89 ± 0.18,4.81 ± 0.37
LLRREPAERLTATGILLHPWLRQD [TRIB3],2.47 ± 0.27,2.45 ± 0.25
LNHVKSMWYPEIKHFCPRTPVILV [RHOBTB1],3.16 ± 0.47,3.1 ± 0.82
LNIKVKLEAEIATYRRLLEDGEDF [KRT18],2.66 ± 0.2,2.5 ± 0.34
LNIVPRTKVVYLASETFNYSAIDR [PI4K2A],2.28 ± 0.18,2.07 ± 0.2
LNLAMVYRYCCKLNKKLKSYSLSR [CDC14A],3.32 ± 0.69,3.04 ± 0.49
LNRDEEIIKQLQKGVQQKRPSEAQ [DENND6A],4.94 ± 0.097,4.83 ± 0.31
LNVRSEEQVFNAVMAWVKYSIQER [KLHL20],2.54 ± 0.77,2.42 ± 0.23
LPDCCHGSELRDFPGRPMGHLSKD [DLC1],4.44 ± 0.29,4.32 ± 0.27
LPGSDVSGRLMGSPPVPGPSAALT [FBXO28],4.42 ± 0.16,4.6 ± 0.33
LQLQKGSDTEAQCEVMQEIVDQVL [INTS3],3.63 ± 0.35,3.93 ± 0.19
LQNEAQKRESFLKYKCLLQQLYYT [IQUB],2.16 ± 0.43,2.24 ± 0.21
LQTMLRQSAFLHLPLPEQIHKASA [INTS4],2.56 ± 0.22,2.44 ± 0.15
LRAEEIETRVTSGSMEALNLKQLR [PPFIA4],4.32 ± 0.28,4.58 ± 0.57
LRCRKEFYQLVWSALPFITYLENK [POP5],2.41 ± 0.9,2.07 ± 0.17
LREAVPGILRARRGEGIQAPSFSS [SOAT2],3.4 ± 0.29,3.44 ± 0.35
LREKVEFLRSLRQMKQKVQSLYQE [NFE2L1],2.09 ± 0.58,2.82 ± 0.52
LRFLLDQVQLGLRCCGAASYQDWQ [TSPAN10],3.05 ± 0.49,3.22 ± 0.49

Sequence,protein stability index (treatment: DMSO),"protein stability index (treatment: MLN4924 1 uM, 8 h)"
LRSRASRCRPRSLIDYKSYMDTKL [FAM189A2],2.3 ± 0.28,2.19 ± 0.23
LSALKHAVLGLYLLVFLILVGIFI [SCARA5],2.16 ± 0.63,2.08 ± 0.14
LSFSGSDVQNKLKESAQCVGDEFL [SNX8],4.48 ± 0.2,4.49 ± 0.21
LSGVQRVESVFFGGGTPSLASPHT [RSAD1],2.98 ± 0.27,3.07 ± 0.25
LSWYFLLCVNYFFYGETVADYFAT [CDS1],3.11 ± 0.46,3.51 ± 0.53
LSYNLYDLLRNTHFRGVSLNLTRK [DYRK1B],2.28 ± 0.36,2.15 ± 0.09
LTFGPDSRHCPQLPPPCAALWCSG [ADAMTS4],2.29 ± 0.36,2.46 ± 0.32
LTTEKQNFLLFDMTTHPLTNNNIK [GOLPH3],2.98 ± 0.18,3.09 ± 0.17
LVCHVMMGNLVMFRKDSVLNILIQ [INTS3],3.25 ± 0.47,3.33 ± 0.51
LVDFCNKPILLHQVEALAAAGVDH [GMPPB],2.65 ± 0.31,2.95 ± 0.35
LVLKIMSGTFAPISDRYSPELRQL [NEK8],2.9 ± 0.6,2.69 ± 0.5
LVMPLEEKLTKITRTGPSAWETKK [PCMTD2],3.79 ± 0.21,3.75 ± 0.23
LVRETDELRRNHCFQDFKEEKPQE [ELOA2],4.28 ± 0.24,4.41 ± 0.28
LWDTSGQGRFCTIFRSYSRGAQGI [RAB40C],2.39 ± 0.41,2.31 ± 0.37
LWELCHLWLRPEVHTKEQILELLV [ZNF396],2.22 ± 0.36,2.31 ± 0.072
LWLRPETHTKEQILELVVLEQFVA [ZNF24],2.26 ± 0.61,2.35 ± 0.45
LYFLFADAMQLNDKWQGLCWPMMD [CMTM3],3.07 ± 0.31,3.05 ± 0.47
LYHNVEGFTDRREARKYASNLLKA [DVL3],3.39 ± 0.071,3.49 ± 0.22
LYVSLHRYDHGTFFPMGDEGASSQ [HDAC6],2.17 ± 0.51,2.31 ± 0.28
MAAQRNRSKESKDCSGLVLLCLFF [PCDHGA10],2.29 ± 0.27,1.83 ± 0.32
MAGCRGSLCCCCRWCCCCGERETR [CLCN6],2.42 ± 0.28,2.98 ± 0.44
MASDHREALLDRESENASLREKLR [LRRC45],5.15 ± 0.093,4.95 ± 0.16
